Where a chain is given by its changes, count along the chain named.

The target of assay [1] is T1, PACAP38 (Pituitary Adenylate Cyclase-Activating Polypeptide, 38 amino acids) (human, not fully specified; the C-terminal lysine is amidated).
T1 construct: In the HTRF and PC-12 cell assays the peptide was N-terminally or C-terminally biotinylated; unlabelled in SPR; also called human PACAP38; huPACAP (1-38)
T1 peptide: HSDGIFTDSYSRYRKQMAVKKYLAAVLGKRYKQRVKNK
Description: inhibition of 30 nM biotinylated PACAP38 binding to PAC1-R-expressing PC-12 cells, Eu-streptavidin TRF. How it is done: (§1) To identify antibodies that block PACAP38 binding to PAC1-R-expressing cells, adherent PC-12 cells (ATCC, Manassas, VA) expressing PAC1-R were used in a Europium-based PAC1-R-expressing cells binding assay. Antibody solutions were incubated with N-terminal biotinylated PACAP38 at 10× the final concentration (100 nM or 30 nM) for 1 hr, then added to PC-12 cells that were plated 24 hrs prior in black clear bottom 96 well plates (COSTAR™, Corning Incorporated, Corning, NY) and further incubated for 1 hr at room temperature. After three washes, the cells were incubated with 20 μl Europium-labeled streptavidin (PerkinElmer, Waltham, MA) for 1 hr at room temperature. Cells were washed three times, then 20 μl DELFIA® Enhancement solution (PerkinElmer, Waltham, MA) was added to each well and incubated for 15 minutes with gentle shaking. Plates were read (Time Resolved Fluorescence (“TRF”)) on SPECTRAMAX® (Molecular Devices, Sunnyvale, CA) plate reader.
(§2) FIGS. 14A-14H are representative of the inhibition curves obtained by this method (results are shown for Ab10, Ab20, Ab21, Ab1.H, Ab10.H, Ab21.H, Ab22, and Ab23, respectively) wherein the PAC1-R expressing cells were PC-12 cells.

The target in assay [2] is T2, VIP (Vasoactive Intestinal Peptide) (human).
T2 construct: also called human VIP
T2 peptide: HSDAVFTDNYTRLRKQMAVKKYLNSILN
The assay is described as follows: SPR (ProteOn XPR36), antibody amine-coupled, peptide analyte, 1:1 Langmuir fit.

The target in assay [3] is T3, PACAP27 (Pituitary Adenylate Cyclase-Activating Polypeptide, 27 amino acids) (human, the C-terminal leucine is amidated).
T3 construct: also called human PACAP27
T3 peptide: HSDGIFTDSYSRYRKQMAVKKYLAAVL
Description: inhibition of 0.1 nM 125I-PACAP27 binding to membranes with human PAC1-R long isoform, filter binding. How it is done: To identify antibodies that block PACAP27 binding to PAC1-R, antibodies at an initial concentration of 30 nM were diluted in incubation buffer (50 mM Hepes pH 7.4, 1 mM CaCl₂, 5 mM MgCl₂, 0.2% BSA) and serial 1:3 dilutions were performed. Antibody dilutions (30 nM, 10 nM, 3 nM, 1 nM, 0.3 nM, 0.1 nM, 0.03 nM, 0.01 nM, 0.003 nM and 0.001 nM) were then mixed and pre-incubated at 25° C. for 30 minutes with 0.1 nM of ¹²⁵I-labelled PACAP27 in incubation buffer. The antibody: ¹²⁵I-labelled PACAP27 mixture was then added to 0.5 μg aliquots of cell membranes derived from Chem-1 cells expressing human recombinant PAC1-R long isoform in incubation buffer. The mixture was then incubated for 1 hour at 25° C. Following incubation, the samples were filtered and washed. Afterward, the filters were counted to quantitate ¹²⁵I-labelled PACAP27. As an experimental control, non-specific binding to the cell membranes was estimated using 0.1 μM of […] PACAP27.

Assay [4] concerns the target T1, PACAP38 (Pituitary Adenylate …). Description: HTRF binding assay, antibody dilution series on 35 nM biotinylated PACAP38. How it is done: In parallel, 10 μl of an antibody dilution series (highest final concentration of 100 nM) were incubated with 10 μl of N-terminal or C-terminal biotinylated PACAP38 (35 nM final) alone, or in combination with either PACAP27 (350 nM final) or VIP (350 nM final), i.e., 10× PACAP27 or 10× VIP, respectively, in a HTRF plate. 20 μl of Eu³⁺ cryptate labeled anti-hu Fc donor and 20 μl of d2-labeled streptavidin acceptor were added to each well and incubated for 1 hour at room temperature. Fluorescence was measured at 620 and 665 nm with a delay of 300 usec.
EC₅₀ values, i.e. the concentration of an antibody that yields a response halfway between the baseline and the maximum value within a specified time period, were computed for each antibody based upon their binding curves and are shown in Table 1 below. […] A humanized form of antibody Ab1 identified by an appended “.H”, i.e., Ab1.H also bound PACAP38 with high affinity.

For assay [5], the target named is T2, VIP (Vasoactive Intestinal Peptide). The assay is described as follows: SPR (ProteOn XPR36), antibody amine-coupled, peptide analyte, 1:1 Langmuir fit; SPR, direct binding of VIP to the antibody; weak, KD 2.8E-07 M.
Assay [6] addresses T1, PACAP38 (Pituitary Adenylate …). The assay is described as follows: inhibition of 100 nM biotinylated PACAP38 binding to PAC1-R-expressing PC-12 cells, Eu-streptavidin TRF. How it is done: as §1, §2
Assay [7] has as its target T2, VIP (Vasoactive Intestinal Peptide). Description: SPR (ProteOn XPR36), antibody amine-coupled, peptide analyte, 1:1 Langmuir fit; SPR, direct binding of VIP to the antibody; weak, KD 1.1E-06 M.

B1: Ab10.H (antibody, human IgG1, kappa, N297A)
heavy: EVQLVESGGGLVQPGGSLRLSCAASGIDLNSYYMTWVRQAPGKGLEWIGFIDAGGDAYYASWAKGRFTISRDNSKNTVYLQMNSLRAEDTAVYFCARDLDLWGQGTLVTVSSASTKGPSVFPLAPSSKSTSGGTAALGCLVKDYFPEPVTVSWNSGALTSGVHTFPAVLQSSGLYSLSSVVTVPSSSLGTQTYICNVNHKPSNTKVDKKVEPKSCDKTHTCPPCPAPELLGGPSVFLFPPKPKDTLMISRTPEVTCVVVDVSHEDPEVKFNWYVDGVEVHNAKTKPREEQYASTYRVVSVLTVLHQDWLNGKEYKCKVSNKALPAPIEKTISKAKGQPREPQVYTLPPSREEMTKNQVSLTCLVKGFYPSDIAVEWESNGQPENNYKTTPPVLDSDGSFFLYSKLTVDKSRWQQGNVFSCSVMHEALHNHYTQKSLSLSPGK
light: DAQLTQSPSTLSASVGDRVTITCQSSESVYGNYLAWFQQKPGKAPKFLIYEASKLESGVPSRFSGSGSGTEFTLTISSLQPDDFATYYCAGGDISEGVAFGGGTKVEIKRTVAAPSVFIFPPSDEQLKSGTASVVCLLNNFYPREAKVQWKVDNALQSGNSQESVTEQDSKDSTYSLSSTLTLSKADYEKHKVYACEVTHQGLSSPVTKSFNRGEC
notes: Full-length humanized variant of Ab10
As a reminder, the IC50 is the concentration needed to halve the response being measured. A low value points to greater potency in that assay. In general, Kd refers to the free concentration of one partner at which half of the binding sites on the other are occupied at equilibrium, for simple one-to-one binding. Higher therefore signals weaker binding. As a reminder, the koff is the first-order rate constant of dissociation. The term kon denotes a measure of how fast the partners come together. Low values mean slow association, high ones fast association. Take B1: in assay [1], the IC50 stood at 14.5 nM. Moreover, in assay [2], binding was characterised by a dissociation constant (Kd) of 100 nM, the koff came to 0.039 s⁻¹ and the association rate constant (kon) worked out at 380000 M⁻¹ s⁻¹. In addition, the IC50 in assay [3] was found to be 0.22 nM.

B2: Ab10 (antibody, human IgG1, kappa, N297A, V domains shown)
VH: QSVEESGGRLVTPGTPLTLTCTVSGIDLNSYYMTWVRQAPGKGLEWIGFIDAGGDAYYASWAKGRFTISKTSTTVDLKITSPTTEDTATYFCARDLDLWGQGTLVTVSS
VL: AAVLTQTPSPVSAAVGGTVTINCQSSESVYGNYLAWFQQKPGQPPKLLIYEASKLESGVPSRFSGSGSGTQFTLTISDLQCDDAATYYCAGGDISEGVAFGGGTEVVVKR
notes: Full-length anti-PACAP antibody; rabbit variable regions cloned onto human constant regions (rabbit/human chimeric), expressed in HEK-293
Broadly, the EC50 is the concentration giving half of the maximal effect. Consider B2, for which, in assay [4], the half-maximal effective concentration (EC50) is 0.36 nM. In assay [5], this molecule returned an equilibrium dissociation constant (Kd) of 280 nM, a koff of 0.01 s⁻¹ and a kon of 37000 M⁻¹ s⁻¹. This molecule also yielded an IC50 in assay [6] of 17.8 nM.

B3: Ab20 (antibody, human IgG1, kappa, N297A, V domains shown)
VH: B2 VH with N29S, T34S, A52T, G53D, D55S, S60T, Q101P
VL: B2 VL with T20S, N22S, G31S, L47F, E56A, S64K, L79V, A85G, D93Y, I94S
notes: Full-length anti-PACAP antibody; rabbit/human chimeric
Regarding B3, the EC50 in assay [4] was 0.38 nM. In assay [7], this molecule had a Kd of 1100 nM, an off-rate constant (koff) of 0.48 s⁻¹ and a kon of 450000 M⁻¹ s⁻¹. In assay [6], this molecule showed a half-maximal inhibitory concentration (IC50) of 32.7 nM.

For the origin of these results see patent publication US20250009876A1 (H LUNDBECK A S, published 2025).
